Paper PMC7721913 (The Journal of Cell Biology, 2020)

What was measured:
[1] = system: DRG neurons; DRGs and sciatic nerve of P1 mice; assay: Immunostaining of KIF5s in DRG neurons, DRGs and sciatic nerve; parameters: species or system rat; mouse; settings: microfluidic DRG neurons, DRGs and sciatic nerves in vivo
[2] = system: CB and distal axon compartments of DRG neurons; assay: Western blot of KIF5 and KLC in cell body and distal axon lysates; type: cell-based, rat; settings: Campenot CB vs distal axon lysates
[3] = system: HA-SFPQ; assay: Coimmunoprecipitation of HA-SFPQ with KLC1/KIF5A constructs in HEK 293T cells
[4] = system: mitochondria in axons of DRG neurons; assay: Mitochondrial transport assay; type: cell-based, rat; settings: vs control; ∼115 mitochondria, 10 axons, three experiments
[5] = system: bclw and β actin mRNA in DRG neurons; assay: Quantitative RT-PCR of mRNA in cell bodies and distal axons; type: cell-based, rat; settings: vs WT control; normalized to gapdh; 3 independent experiments

B1: KIF5B: kinesin heavy chain KIF5B (protein, UniProt P33176 2-963, looked up)
Kinesin-1 heavy chain: ADLAECNIKVMCRFRPLNESEVNRGDKYIAKFQGEDTVVIASKPYAFDRVFQSSTSQEQVYNDCAKKIVKDVLEGYNGTIFAYGQTSSGKTHTMEGKLHDPEGMGIIPRIVQDIFNYIYSMDENLEFHIKVSYFEIYLDKIRDLLDVSKTNLSVHEDKNRVPYVKGCTERFVCSPDEVMDTIDEGKSNRHVAVTNMNEHSSRSHSIFLINVKQENTQTEQKLSGKLYLVDLAGSEKVSKTGAEGAVLDEAKNINKSLSALGNVISALAEGSTYVPYRDSKMTRILQDSLGGNCRTTIVICCSPSSYNESETKSTLLFGQRAKTIKNTVCVNVELTAEQWKKKYEKEKEKNKILRNTIQWLENELNRWRNGETVPIDEQFDKEKANLEAFTVDKDITLTNDKPATAIGVIGNFTDAERRKCEEEIAKLYKQLDDKDEEINQQSQLVEKLKTQMLDQEELLASTRRDQDNMQAELNRLQAENDASKEEVKEVLQALEELAVNYDQKSQEVEDKTKEYELLSDELNQKSATLASIDAELQKLKEMTNHQKKRAAEMMASLLKDLAEIGIAVGNNDVKQPEGTGMIDEEFTVARLYISKMKSEVKTMVKRCKQLESTQTESNKKMEENEKELAACQLRISQHEAKIKSLTEYLQNVEQKKRQLEESVDALSEELVQLRAQEKVHEMEKEHLNKVQTANEVKQAVEQQIQSHRETHQKQISSLRDEVEAKAKLITDLQDQNQKMMLEQERLRVEHEKLKATDQEKSRKLHELTVMQDRREQARQDLKGLEETVAKELQTLHNLRKLFVQDLATRVKKSAEIDSDDTGGSAAQKQKISFLENNLEQLTKVHKQLVRDNADLRCELPKLEKRLRATAERVKALESALKEAKENASRDRKRYQQEVDRIKEAVRSKNMARRGHSAQIAKPIRPGQHPAASPTHPSAIRGGGAFVQNSQPVAVRGGGGKQV
[1]
  axonal localization of KIF5B by immunostaining (in words): largely excluded from axons
[2]
  compartment localization (in words): preferentially localizes in the CB compartment

B2: KLC1 or its C-terminal mutant (ΔTail) (protein, UniProt P37285 1-560, looked up)
Kinesin light chain 1: MHDNMSTMVYMKEEKLEKLTQDEIISKTKQVIQGLEALKNEHNSILQSLLETLKCLKKDDESNLVEEKSSMIRKSLEMLELGLSEAQVMMALSNHLNAVESEKQKLRAQVRRLCQENQWLRDELANTQQKLQKSEQSVAQLEEEKKHLEFMNQLKKYDDDISPSEDKDSDSSKEPLDDLFPNDEDDPGQGIQQQHSSAAAAAQQGGYEIPARLRTLHNLVIQYASQGRYEVAVPLCKQALEDLEKTSGHDHPDVATMLNILALVYRDQNKYKDAANLLNDALAIREKTLGRDHPAVAATLNNLAVLYGKRGKYKEAEPLCKRALEIREKVLGKDHPDVAKQLNNLALLCQNQGKYEEVEYYYQRALEIYQTKLGPDDPNVAKTKNNLASCYLKQGKFKQAETLYKEILTRAHEREFGSVDDENKPIWMHAEEREECKGKQKDGSSFGEYGGWYKACKVDSPTVTTTLKNLGALYRRQGKFEAAETLEEAALRSRKQGLDNVHKQRVAEVLNDPENVEKRRSRESLNVDVVKYESGPDGGEEVSMSVEWNGMRKMKLGLVK
modifications: or C-terminal tail deletion mutant
[3]; Myc-KLC1 without C-terminal region vs WT, n = 4, P = 0.0033
  reduction of binding to SFPQ: ~50%

B3: KIF5A^R280H: KIF5A mutant associated with CMT2 (protein)
chain: MAETNNECSIKVLCRFRPLNQAEILRGDKFIPIFQGDDSVIIGGKPYVFDRVFPPNTTQEQVYHACAMQIVKDVLAGYNGTIFAYGQTSSGKTHTMEGKLHDPQLMGIIPRIARDIFNHIYSMDENLEFHIKVSYFEIYLDKIRDLLDVTKTNLSVHEDKNRVPFVKGCTERFVSSPEEILDVIDEGKSNRHVAVTNMNEHSSRSHSIFLINIKQENVETEQKLSGKLYLVDLAGSEKVSKTGAEGAVLDEAKNINKSLSALGNVISALAEGTKSYVPYHDSKMTRILQDSLGGNCRTTMFICCSPSSYNDAETKSTLMFGQRAKTIKNTASVNLELTAEQWKKKYEKEKEKTKAQKETIAKLEAELSRWRNGENVPETERLAGEDSALGAELCEETPVNDNSSIVVRIAPEERQKYEEEIRRLYKQLDDKDDEINQQSQLIEKLKQQMLDQEELLVSTRGDNEKVQRELSHLQSENDAAKDEVKEVLQALEELAVNYDQKSQEVEEKSQQNQLLVDELSQKVATMLSLESELQRLQEVSGHQRKRIAEVLNGLMRDLSEFSVIVGNGEIKLPVEISGAIEEEFTVARLYISKIKSEVKSVVKRCRQLENLQVECHRKMEVTGRELSSCQLLISQHEAKIRSLTEYMQTVELKKRHLEESYDSLSDELARLQAHETVHEVALKDKEPDTQDAEEVKKALELQMENHREAHHRQLARLRDEINEKQKTIDELKDLNQKLQLELEKLQADYERLKNEENEKSAKLQELTFLYERHEQSKQDLKGLEETVARELQTLHNLRKLFVQDVTTRVKKSAEMEPEDSGGIHSQKQKISFLENNLEQLTKVHKQLVRDNADLRCELPKLEKRLRATAERVKALEGALKEAKEGAMKDKRRYQQEVDRIKEAVRYKSSGKRGHSAQIAKPVRPGHYPASSPTNPYGTRSPECISYTNNLFQNYQNLHLQAAPSSTSDMYFASSGATSVAPLASYQKANMDNGNATDINDNRSDLPCGYEAEDQAKLFPLHQETAAS
modifications: left off: FLAG, N-terminal, kept
[4]
  mitochondria transport (in words): did not alter mitochondria transport
[5]
  axonal bclw mRNA level (in words): significantly decreased
  axonal β actin mRNA level (in words): not affected
[3]; KIF5A^R280H vs WT KIF5A, n = 7, P = 0.0019
  reduction in binding to SFPQ: ~50%
